Source: patent publication US20170056486A1

Target: HLA-A*24 (human)
Assay: UV-exchange ELISA (anti-b2m); yield 50%-75%

| Binder | peptide exchange yield [%] |
| --- | --- |
| SYTSVLSRL | 50 to 75 |
| QYSIISNVF | 50 to 75 |
| RFIGIPNQF | 50 to 75 |
| TYADIGGLDNQI | 50 to 75 |
| VYAIFRILL | 50 to 75 |
| FYIPHVPVSF | 50 to 75 |
| SYLTQHQRI | 50 to 75 |
| VYVIEPHSMEF | 50 to 75 |
| IFHEVPLKF | 50 to 75 |
| VYTHEVVTL | 50 to 75 |
| VFDTSIAQLF | 50 to 75 |
| VYLPKIPSW | 50 to 75 |
| VYQKIILKF | 50 to 75 |
| VFSPDGHLF | 50 to 75 |
| KYTDWTEFL | 50 to 75 |
| NYLVDPVTI | 50 to 75 |
| VYNEQIRDLL | 50 to 75 |
| EYNEVANLF | 50 to 75 |
| YYLGSGRETF | 50 to 75 |
| YYFFVQEKI | 50 to 75 |
| VYAEVNSL | 50 to 75 |
| KYQNVKHNL | 50 to 75 |
| VWLPASVLF | 50 to 75 |
| SYLPAIWLL | 50 to 75 |
| IYGFFNENF | 50 to 75 |

| Binder | peptide exchange yield [%] |
| --- | --- |
| IYAPTLLVF | 50 to 75 |
| TFDGHGVFF | 50 to 75 |
| IYLEHTESI | 50 to 75 |
| VYGEPRELL | 50 to 75 |
| VYVGDALLHAI | 50 to 75 |
| TYGKIDLGF | 50 to 75 |
| QYGGDLTNTF | 50 to 75 |
| KYTDYILKI | 50 to 75 |
| KYLESSATF | 50 to 75 |
| RYFKGDYSI | 50 to 75 |
| TYSNSAFQYF | 50 to 75 |
| NYLGGTSTI | 50 to 75 |
| SYVKVLHHL | 50 to 75 |
| EYNSDLHQFF | 50 to 75 |
| VYPAEQPQI | 50 to 75 |
| SYLVIHERI | 50 to 75 |
| KYLNENQLSQL | 50 to 75 |
| LYPQLFVVL | 50 to 75 |
| FYTFPFQQL | 50 to 75 |
| QYPYLQAFF | 50 to 75 |
| EYNSDLHQF | 50 to 75 |
| VYTKALSSL | 50 to 75 |
| LYSVIKEDF | 50 to 75 |
| YYSEVPVKL | 50 to 75 |
| VFGKSAYLF | 50 to 75 |

| Binder | peptide exchange yield [%] |
| --- | --- |
| KYVGQLAVL | 50 to 75 |
| IYVTGGHLF | 50 to 75 |
| IYNPNLLTASKF | 50 to 75 |
| VYFEGSDFKF | 50 to 75 |
| KYQYVLNEF | 50 to 75 |
| IYGEKLQFIF | 50 to 75 |
| IFIDNSTQPLHF | 50 to 75 |
| KYGNFIDKL | 50 to 75 |
| NYSPGLVSLIL | 50 to 75 |
| EYQEIFQQL | 50 to 75 |
| RFPVQGTVTF | 50 to 75 |
| GYAFTLPLF | 50 to 75 |
| SFTKTSPNF | 50 to 75 |
| QYLELAHSL | 50 to 75 |
| NYAFLHRTL | 50 to 75 |
| RYILENHDF | 50 to 75 |
| GYISNGELF | 50 to 75 |
| YYSQESKVLYL | 50 to 75 |
| SYLELANTL | 50 to 75 |
| LYLPVHYGF | 50 to 75 |
| DYLKDPVTI | 50 to 75 |
| AYAQLGYLL | 50 to 75 |
| VYKDSIYYI | 50 to 75 |
| TYPSQLPSL | 50 to 75 |
| VHFEDTGKTLLF | 50 to 75 |
